According to PMC9007600:

Target: tralokinumab half molecule (human)

- dissociation half-life: 16.8 h
B1: tralokinumab half molecule (antibody, V domains shown)
VH: QVQLVQSGAEVKKPGASVKVSCKASGYTFTNYGLSWVRQAPGQGLEWMGWISANNGDTNYGQEFQGRVTMTTDTSTSTAYMELRSLRSDDTAVYYCARDSSSSWARWFFDLWGRGTLVTVSS
VL: SYVLTQPPSVSVAPGKTARITCGGNIIGSKLVHWYQQKPGQAPVLVIYDDGDRPSGIPERFSGSNSGNTATLTISRVEAGDEADYYCQVWDTGSDPVVFGGGTKLTVL
